Target: FGFR1 extracellular domain (human, UniProt P11362 22-376)
Test: SPR; 1:1 model; ka 2.20E10 1/Ms, kd 54.9 1/s; SPR: Biacore T200, CM5 amine coupling, HBS running buffer (pH, salt, temperature not stated); flow cytometry: PBS, 1% BSA, 0.1% sodium azide, room temperature
Details: protein: commercial; stem-loop (Mfold)

Sequence of FGFR1 extracellular domain (P11362 22-376): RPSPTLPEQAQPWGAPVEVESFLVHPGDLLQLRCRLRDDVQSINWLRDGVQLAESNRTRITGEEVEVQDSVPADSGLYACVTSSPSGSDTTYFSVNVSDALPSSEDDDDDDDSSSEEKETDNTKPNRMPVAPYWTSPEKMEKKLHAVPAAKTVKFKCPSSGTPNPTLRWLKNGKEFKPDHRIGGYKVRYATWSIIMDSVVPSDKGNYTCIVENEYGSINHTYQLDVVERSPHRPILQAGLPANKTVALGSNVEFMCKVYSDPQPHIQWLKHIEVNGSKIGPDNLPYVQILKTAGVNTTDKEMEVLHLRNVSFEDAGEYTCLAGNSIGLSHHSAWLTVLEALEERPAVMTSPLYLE

## GCCGCGTCTTTATGGCTGGGGATGGTGTGGGTTGCGGC (structured_DNA) [FGFR-binder]
  Kd: 2.5 nM

Reference: article PMC10638775, “Development of synthetic modulator enabling long-term propagation and neurogenesis of human embryonic stem cell-derived neural progenitor cells”
